Patent US20240117038A1 (Ablynx, published 2024)

T1: cynomolgus CX3CR1 (cynomolgus monkey (Macaca fascicularis), UniProt P49238 1-355 (human entry))
T1 construct: Overexpressed on CHO K1 cells; also called cyno CX3CR1; cyCX3CR1
T1 chain: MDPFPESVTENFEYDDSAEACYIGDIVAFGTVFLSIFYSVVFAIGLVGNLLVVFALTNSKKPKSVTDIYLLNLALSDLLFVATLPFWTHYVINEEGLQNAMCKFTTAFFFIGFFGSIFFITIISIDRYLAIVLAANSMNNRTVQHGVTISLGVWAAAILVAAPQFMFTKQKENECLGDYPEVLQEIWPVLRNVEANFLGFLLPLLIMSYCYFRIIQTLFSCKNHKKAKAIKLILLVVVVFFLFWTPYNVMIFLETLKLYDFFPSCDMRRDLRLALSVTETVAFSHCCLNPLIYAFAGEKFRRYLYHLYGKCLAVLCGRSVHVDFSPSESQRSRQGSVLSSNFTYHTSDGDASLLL

T2: human CX3CR1 (human, UniProt P49238 1-355)
T2 construct: Overexpressed on CHO K1, Ba/F3 or HEK293T cells; also called huCX3CR1; hCX3CR1
T2 sequence: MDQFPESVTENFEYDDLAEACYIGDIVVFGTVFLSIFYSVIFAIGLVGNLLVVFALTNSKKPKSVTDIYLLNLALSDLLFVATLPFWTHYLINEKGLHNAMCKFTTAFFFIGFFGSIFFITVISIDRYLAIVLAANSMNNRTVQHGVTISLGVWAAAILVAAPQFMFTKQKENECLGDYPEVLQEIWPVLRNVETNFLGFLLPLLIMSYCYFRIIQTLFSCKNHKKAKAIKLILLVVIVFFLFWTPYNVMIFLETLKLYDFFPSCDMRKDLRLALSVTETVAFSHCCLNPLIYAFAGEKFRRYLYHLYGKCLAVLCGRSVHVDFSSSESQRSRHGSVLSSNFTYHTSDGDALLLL

T3: human CX3CR1 V249I/T280M (human, UniProt P49238 1-355)
T3 construct: Transiently transfected in HEK293T cells (pcDNA3.1); also called huCX3CR1 variant V249I and T280M
T3 chain: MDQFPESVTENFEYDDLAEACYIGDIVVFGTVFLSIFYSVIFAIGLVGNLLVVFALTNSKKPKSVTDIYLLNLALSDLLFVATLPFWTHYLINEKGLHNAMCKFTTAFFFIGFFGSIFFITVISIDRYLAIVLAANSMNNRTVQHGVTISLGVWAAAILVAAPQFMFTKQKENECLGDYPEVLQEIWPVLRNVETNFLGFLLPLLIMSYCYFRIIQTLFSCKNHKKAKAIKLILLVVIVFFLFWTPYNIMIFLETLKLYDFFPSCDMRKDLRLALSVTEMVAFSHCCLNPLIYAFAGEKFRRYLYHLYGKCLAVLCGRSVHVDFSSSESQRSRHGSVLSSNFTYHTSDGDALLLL


What was measured:
[1] = biological target: T1, cynomolgus CX3CR1; assay: flow cytometry on CHO K1 cyCX3CR1 cells, 30 uM HSA
Experimental: (§1) CHO cells overexpressing human or cynomolgus CX3CR1 were generated using techniques known in the art. Cells were harvested and resuspended in assay buffer (PBS, 2% FBS, 0.05% NaN3) and seeded separately in 384-well Bio-One V-bottom plates (Greiner, Cat. No. 781280), with a total of 2E04 cells seeded per well. After washing, serial dilutions of multivalent ISVD construct (starting from 250 nM, 3-fold dilution, 11 points, diluted in assay buffer), were added and incubated for 4 hours at 4° C. Binding was performed in the presence of 30 uM HSA (Sigma-Aldrich, Cat. No. A8763). Plates were then washed 3 times and cells were incubated with an anti-VHH mouse antibody (3300-fold diluted in assay buffer) for 30 minutes at 4′° C. […] Plates were finally washed 3 times and cells were resuspended in PI (Miltenyi Biotec, Cat. No. 130-093-233, 1000-fold diluted in assay buffer). Cell suspensions were analyzed with iQue Screener PLUS (Intellicyt). EC50s were estimated by dose response modelling. Curves were fit using 4 parameter logistic regression in GraphPad (GraphPad Software Inc.). A purified anti-human CX3CR1 antibody [K0124E1] (BioLegend, Cat. No. 355701/355702) was used as positive control to detect CX3CR1 expression on the cell surface.

[2] = biological target: T2, human CX3CR1; assay: flow cytometry on CHO K1 huCX3CR1 cells, 30 uM HSA
Experimental: as §1

[3] = biological target: T2, human CX3CR1; assay: MSD-SET in-solution affinity on cell expressed human CX3CR1, 30 uM HSA, geometric mean of N = 3
Experimental: The affinity was determined on 3 independent assay occasions.

[4] = biological target: T3, human CX3CR1 V249I/T280M; assay: flow cytometry on HEK293T cells transiently transfected with human CX3CR1 V249I + T280M; detection with anti-VHH mouse antibody and goat anti-mouse Fc APC, as in Example 5.1
Experimental: Plates were then washed 3 times and cells were incubated with an anti-VHH mouse antibody (3300-fold diluted in assay buffer) for 30 minutes at 4′° C. […] Plates were finally washed 3 times and cells were resuspended in PI (Miltenyi Biotec, Cat. No. 130-093-233, 1000-fold diluted in assay buffer). Cell suspensions were analyzed with iQue Screener PLUS (Intellicyt). EC50s were estimated by dose response modelling. Curves were fit using 4 parameter logistic regression in GraphPad (GraphPad Software Inc.). A purified anti-human CX3CR1 antibody [K0124E1] (BioLegend, Cat. No. 355701/355702) was used as positive control to detect CX3CR1 expression on the cell surface.
Two important SNPs are described in huCX3CR1, i.e. V2491 (Rs3732379) and T280M (Rs3732378), which might influence receptor activity and binding by the ISVD. […] Different combinations of these SNPs were introduced in human CX3CR1, and binding by 5 selected multivalent ISVD constructs was assessed with flow cytometry after transient transfection of the huCX3CR1 variants in HEK293T cells.
In short, the CX3CR1 constructs were cloned into pcDNA3.1 (ThermoFisher Scientific, Cat. No. V79020) and plasmid DNA was prepared from Escherichia coli TOP10 cells. […]

Binder	EC50 [1] [nM]	top [1]	EC50 [2] [nM]	top [2]	Kd [3] [nM]	binding result [4]
A041600034 (VHH, Trivalent ISVD construct; also called 54A12_SO (E1D)-9GS-ALB23002-9GS-66B02_SO-A) DVQLVESGGGSVQPGGSLRLSCAASGSIFSSTAMAWYRQAPGKQRDLVAVISTVGITKYADSVKGRFTISRDNAKNTVYLQMNSLRPEDTALYYCTSDARRGWDTRYWGQGTLVTVSSGGGGSGGGSEVQLVESGGGVVQPGGSLRLSCAASGFTFRSFGMSWVRQAPGKGPEWVSSISGSGSDTLYADSVKGRFTISRDNSKNTLYLQMNSLRPEDTALYYCTIGGSLSRSSQGTLVTVSSGGGGSGGGSEVQLVESGGGSVQPGGSLRLSCAASGSIFSSTAMAWYRQAPGKRRDLVAAINTVGVTKYADSVKGRFTISRDNAKNTVYLQMNSLRPEDTALYYCTSDPRRGWDTRYWGQGTLVTVSSA	0.45	273000	0.63	28200		
A041600085 (VHH, also called 307-9GS-ALB23002-9GS-307 (D1E)-A) DVQLVESGGGLVQPGGSLRLSCAASGSIFSSTAMAWYRQAPGKRRDLVAAISTVGVTKYADSVKGRFTISRDNSKNTVYLQMNSLRPEDTAVYYCTSDPRRGWDTRYWGQGTLVTVSSGGGGSGGGSEVQLVESGGGVVQPGGSLRLSCAASGFTFRSFGMSWVRQAPGKGPEWVSSISGSGSDTLYADSVKGRFTISRDNSKNTLYLQMNSLRPEDTALYYCTIGGSLSRSSQGTLVTVSSGGGGSGGGSEVQLVESGGGLVQPGGSLRLSCAASGSIFSSTAMAWYRQAPGKRRDLVAAISTVGVTKYADSVKGRFTISRDNSKNTVYLQMNSLRPEDTAVYYCTSDPRRGWDTRYWGQGTLVTVSSA	0.56	186000	0.17	14600		binds

Now those with a lower EC50 [1], led by results:

EC50 [1] [nM]	top [1]	EC50 [2] [nM]	top [2]	Kd [3] [nM]	binding result [4]	Binder
0.24	411000	0.36	50900	0.13		A041600035 (VHH, Trivalent ISVD construct (two anti-CX3CR1 ISVDs, one anti-albumin ISVD), C-terminal alanine included in the entry; also called 54A12_SO (E1D)-9GS-54A12_SO-9GS-ALB23002-A) DVQLVESGGGSVQPGGSLRLSCAASGSIFSSTAMAWYRQAPGKQRDLVAVISTVGITKYADSVKGRFTISRDNAKNTVYLQMNSLRPEDTALYYCTSDARRGWDTRYWGQGTLVTVSSGGGGSGGGSEVQLVESGGGSVQPGGSLRLSCAASGSIFSSTAMAWYRQAPGKQRDLVAVISTVGITKYADSVKGRFTISRDNAKNTVYLQMNSLRPEDTALYYCTSDARRGWDTRYWGQGTLVTVSSGGGGSGGGSEVQLVESGGGVVQPGGSLRLSCAASGFTFRSFGMSWVRQAPGKGPEWVSSISGSGSDTLYADSVKGRFTISRDNSKNTLYLQMNSLRPEDTALYYCTIGGSLSRSSQGTLVTVSSA
0.15	346000	0.22	41800		binds	A041600041 (VHH, Trivalent ISVD construct (two anti-CX3CR1 ISVDs, one anti-albumin ISVD), C-terminal alanine included in the entry; also called 54A12_SO (E1D)-9GS-66B02_SO-9GS-ALB23002-A) DVQLVESGGGSVQPGGSLRLSCAASGSIFSSTAMAWYRQAPGKQRDLVAVISTVGITKYADSVKGRFTISRDNAKNTVYLQMNSLRPEDTALYYCTSDARRGWDTRYWGQGTLVTVSSGGGGSGGGSEVQLVESGGGSVQPGGSLRLSCAASGSIFSSTAMAWYRQAPGKRRDLVAAINTVGVTKYADSVKGRFTISRDNAKNTVYLQMNSLRPEDTALYYCTSDPRRGWDTRYWGQGTLVTVSSGGGGSGGGSEVQLVESGGGVVQPGGSLRLSCAASGFTFRSFGMSWVRQAPGKGPEWVSSISGSGSDTLYADSVKGRFTISRDNSKNTLYLQMNSLRPEDTALYYCTIGGSLSRSSQGTLVTVSSA
0.36	266000	0.46	28700			A041600025 (VHH, Trivalent ISVD construct (two anti-CX3CR1 ISVDs, one anti-albumin ISVD), C-terminal alanine included in the entry; also called 54A12_SO (E1D)-9GS-ALB23002-9GS-54A12_SO-A) DVQLVESGGGSVQPGGSLRLSCAASGSIFSSTAMAWYRQAPGKQRDLVAVISTVGITKYADSVKGRFTISRDNAKNTVYLQMNSLRPEDTALYYCTSDARRGWDTRYWGQGTLVTVSSGGGGSGGGSEVQLVESGGGVVQPGGSLRLSCAASGFTFRSFGMSWVRQAPGKGPEWVSSISGSGSDTLYADSVKGRFTISRDNSKNTLYLQMNSLRPEDTALYYCTIGGSLSRSSQGTLVTVSSGGGGSGGGSEVQLVESGGGSVQPGGSLRLSCAASGSIFSSTAMAWYRQAPGKQRDLVAVISTVGITKYADSVKGRFTISRDNAKNTVYLQMNSLRPEDTALYYCTSDARRGWDTRYWGQGTLVTVSSA
